In this test the target is human TLR5 (human) (UniProt O60602).

The source of these data is publication PMC13418256.

Chain of UniProt O60602 (O60602 21-858): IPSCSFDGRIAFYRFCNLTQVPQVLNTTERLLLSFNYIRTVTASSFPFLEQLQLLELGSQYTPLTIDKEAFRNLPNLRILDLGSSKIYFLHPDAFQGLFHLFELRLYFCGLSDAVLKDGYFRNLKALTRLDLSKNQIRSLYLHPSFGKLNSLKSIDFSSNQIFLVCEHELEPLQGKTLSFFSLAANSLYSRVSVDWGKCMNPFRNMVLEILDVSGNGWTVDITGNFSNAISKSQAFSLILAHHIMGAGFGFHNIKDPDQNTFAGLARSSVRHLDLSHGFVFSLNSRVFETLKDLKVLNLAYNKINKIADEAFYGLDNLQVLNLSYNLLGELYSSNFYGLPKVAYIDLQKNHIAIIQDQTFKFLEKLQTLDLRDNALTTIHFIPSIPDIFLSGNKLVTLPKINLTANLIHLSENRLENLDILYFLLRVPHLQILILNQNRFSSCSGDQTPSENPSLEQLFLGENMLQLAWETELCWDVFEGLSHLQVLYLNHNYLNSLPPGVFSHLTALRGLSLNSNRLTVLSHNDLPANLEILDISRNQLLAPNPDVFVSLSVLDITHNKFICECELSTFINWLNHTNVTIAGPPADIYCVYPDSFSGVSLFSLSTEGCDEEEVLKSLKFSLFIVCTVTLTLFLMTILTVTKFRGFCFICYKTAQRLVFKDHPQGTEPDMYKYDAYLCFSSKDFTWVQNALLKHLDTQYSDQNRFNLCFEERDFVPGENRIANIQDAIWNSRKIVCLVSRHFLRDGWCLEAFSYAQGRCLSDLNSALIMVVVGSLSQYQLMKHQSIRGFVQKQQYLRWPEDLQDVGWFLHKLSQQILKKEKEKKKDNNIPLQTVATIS

Regarding “Enterobacter sp. BIDMC93 host-encoded flagellin FliCH (natural protein)”, the TLR5-driven NF-κB activation (SEAP colorimetric reporter) in HEK293T-Blue-hTLR5 cells stimulated with an Ent strain expressing only FliCH (ΔfliCP-tldR-gRNA), against the WT lysogenic strain (fold of the WT lysogenic strain) is 2.
